Results on two molecules are retold here after US20230312722A1 (NONA BIOSCIENCES SUZHOU, published 2023).

The EC50 is the concentration at which the effect is half-maximal. A word on the EC50 (read off the curve): it is the concentration needed to bring the measured effect to its halfway point. What is called Kd is the concentration at which binding is half-saturated. Broadly, the koff is the rate constant with which the complex falls apart. By kon is commonly meant the second-order rate constant of association.

Assay [1] has as its target T1, human B7H4 on the cell surface (human, UniProt Q7Z7D3 25-282).
T1 construct: whole, on cells; also called CHOK1/hu B7H4; B7H4 on SK-BR-3
T1 sequence (looked up): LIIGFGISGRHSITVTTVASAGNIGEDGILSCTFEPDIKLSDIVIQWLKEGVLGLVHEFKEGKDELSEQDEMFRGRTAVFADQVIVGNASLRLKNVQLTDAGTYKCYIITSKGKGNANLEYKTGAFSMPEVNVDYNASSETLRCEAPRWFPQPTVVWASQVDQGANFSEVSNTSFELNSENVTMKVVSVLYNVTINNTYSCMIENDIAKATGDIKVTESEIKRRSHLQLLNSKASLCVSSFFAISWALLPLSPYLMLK
Kind of assay: FACS on MDA-MB-468 cells; in the drawn table the number stands under the head 'Maximum MFI' (the two heads are interchanged); the head says nM, the axis of the curve µg/mL.

Assay [2] has as its target T1, human B7H4 on the cell surface. Kind of assay: FACS, tumor cells (table head: SK-BR-3). The protocol: (§1) This example is intended to investigate the in vitro binding activity of anti-human B7H4 H2L2 monoclonal antibody to human/cynomolgus monkey/mouse B7H4. Antibody binding experiments at the cellular level were performed using CHOK1 cell line overexpressing human B7H4 (CHOK1/hu B7H4, Harbour BioMed), CHOK1 cell line overexpressing cynomolgus monkey B7H4 (CHOK1/cyno B7H4, Harbour BioMed), CHOK1 cell line overexpressing mouse B7H4 (CHOK1/m B7H4, Harbour BioMed) and SK-BR-3 cell line (ATCC® HTB-30) highly expressing human B7H4. Briefly, CHOK1/hu B7H4 cells, CHOK1/cyno B7H4 cells, CHOK1/m B7H4 cells or SK-BR-3 cells were digested and resuspended with PBS containing 2% BSA. The cell density was adjusted to 1×10⁶ cells/mL. The cells were seeded in a 96-well V-bottom plate (Corning, #3894) at 100 μL/well, followed by the addition of test antibodies diluted in a 3-fold concentration gradient of 2 times the final concentration, each at 100 μL/well. The cells were incubated at 4° C. for 2 h away from light. Thereafter, the cells in each well were rinsed twice with 100 μL of pre-cooled PBS containing 2% BSA, and centrifuged at 500 g at 4° C. for 5 min, and then the supernatant was discarded. […] Finally, the cells in each well were resuspended with 200 μL of pre-cooled PBS containing 2% BSA, and the fluorescence signal values were read using an ACEA Novocyte3000 flow cytometer.
In general terms: A flow cytometer gives signals particle by particle.

Assay [3] has the same target. Briefly: FACS on MDA-MB-468 cells (head of the figure); the same number stands in Table 2-3 of the text under the head SK-BR-3.
Assay [4] shares this target. Briefly: FACS on MDA-MB-468 cells; in the drawn table the number stands under the head 'EC50 (nM)' (the two heads are interchanged).
The target is the same in assay [5]. Kind of assay: FACS on MDA-MB-468 cells.
The target in assay [6] is T2, human B7-H4 (recombinant protein of the BLI affinity assay, Example 7.2) (human, UniProt Q7Z7D3 29-258, limits assumed).
T2 construct: also called human B7H4 protein
T2 sequence (looked up): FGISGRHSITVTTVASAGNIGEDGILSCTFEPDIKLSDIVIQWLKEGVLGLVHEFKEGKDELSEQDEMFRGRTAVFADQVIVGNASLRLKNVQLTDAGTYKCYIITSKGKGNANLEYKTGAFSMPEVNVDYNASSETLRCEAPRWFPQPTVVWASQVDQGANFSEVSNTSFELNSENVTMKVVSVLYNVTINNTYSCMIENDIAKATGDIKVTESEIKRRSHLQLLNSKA
Briefly: BLI (Octet Red 96e), antibody captured on AHC sensor, human B7-H4 in solution, 1:1 global fit. The protocol: When the affinity of the antigen for the antibody was determined, the rotation speed of the sensor was set at 1000 rpm/min. The AHC sensors (Fortebio, #18-5060) placed in a row were equilibrated for 10 minutes in a test buffer before the AHC sensors were used to capture the B7-H4 antibodies at a capture height of 0.7 nm; the AHC sensors, after equilibrated in the buffer for 120 s, bound to 2-fold serially diluted human B7-H4 (concentrations were 50 nM-3.125 nM and 0 nM) for 180 s, followed by dissociation for 300 s. Finally, the AHC sensor was immersed in a 10 mM glycine-hydrochloric acid solution at pH 1.5 for regeneration to elute the proteins bound to the sensor.
When data analysis was performed using Octet Data Analysis software (Fortebio, version 11.0), 0 nM was taken as a reference well, and reference subtraction was performed; the “1:1 Global fitting” method was selected to fit the data, and the kinetics parameters of the binding of antigens to antigen-binding proteins were calculated, with kₒₙ (1/Ms) values, kdis (1/s) values and KD(M) values obtained (see Table 7-2).
On the technique in general: Biolayer interferometry detects binding as a change in optical thickness at a sensor tip.

Assay [7] deals with T1, human B7H4 on the cell surface. Kind of assay: FACS, CHOK1/hu B7H4 cells. The protocol:
(§2) This example is intended to investigate the in vitro binding activity of anti-human B7H4 H2L2 monoclonal antibody to human/cynomolgus monkey/mouse B7H4. Antibody binding experiments at the cellular level were performed using CHOK1 cell line overexpressing human B7H4 (CHOK1/hu B7H4, Harbour BioMed), CHOK1 cell line overexpressing cynomolgus monkey B7H4 (CHOK1/cyno B7H4, Harbour BioMed), CHOK1 cell line overexpressing mouse B7H4 (CHOK1/m B7H4, Harbour BioMed) and SK-BR-3 cell line (ATCC® HTB-30) highly expressing human B7H4. Briefly, CHOK1/hu B7H4 cells, CHOK1/cyno B7H4 cells, CHOK1/m B7H4 cells or SK-BR-3 cells were digested and resuspended with PBS containing 2% BSA. The cell density was adjusted to 1×10⁶ cells/mL. The cells were seeded in a 96-well V-bottom plate (Corning, #3894) at 100 μL/well, followed by the addition of test antibodies diluted in a 3-fold concentration gradient of 2 times the final concentration, each at 100 μL/well. The cells were incubated at 4° C. for 2 h away from light. Thereafter, the cells in each well were rinsed twice with 100 μL of pre-cooled PBS containing 2% BSA, and centrifuged at 500 g at 4° C. for 5 min, and then the supernatant was discarded. Then 100 μL of a fluorescent secondary antibody (Alexa Fluor 488-conjugated AffiniPure Goat Anti-Human IgG, Fcγ Fragment Specific, Jackson, #109-545-098, 1:500 diluted) was added to each well. The plate was incubated away from light at 4° C. for 1 h. The cells in each well were washed twice with 100 μL of pre-cooled PBS containing 2% BSA, and centrifuged at 500 g at 4° C. for 5 minutes, and then the supernatant was discarded. Finally, the cells in each well were resuspended with 200 μL of pre-cooled PBS containing 2% BSA, and the fluorescence signal values were read using an ACEA Novocyte3000 flow cytometer.

The target in assay [8] is T3, mouse B7H4 on the cell surface (mouse, UniProt Q7TSP5 25-257).
T3 construct: whole, on cells; also called CHOK1/m B7H4
T3 sequence (looked up): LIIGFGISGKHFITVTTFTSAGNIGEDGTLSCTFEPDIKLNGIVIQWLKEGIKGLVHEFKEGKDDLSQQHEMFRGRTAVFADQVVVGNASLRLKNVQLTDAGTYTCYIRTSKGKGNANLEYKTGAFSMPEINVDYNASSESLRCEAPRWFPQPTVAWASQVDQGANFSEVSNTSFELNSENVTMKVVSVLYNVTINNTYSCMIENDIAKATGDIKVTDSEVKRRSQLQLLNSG
Kind of assay: FACS, CHOK1/m B7H4 cells (FIG. 5). The method, then: as §1

For assay [9], the target named is T4, cynomolgus monkey B7H4 on the cell surface (cynomolgus monkey, UniProt A0A2K5U6P5 25-282).
T4 construct: whole, on cells; also called CHOK1/cyno B7H4
T4 sequence: T1 sequence (looked up) with L53I, F242L, S252A
Kind of assay: FACS, CHOK1/cyno B7H4 cells. The method, then: as §2

Assay [10] has as its target T1, human B7H4 on the cell surface. Kind of assay: FACS, SK-BR-3 cells. The method, then:
as §2

Numbering of substitutions follows the chain as printed. In names and notes the source's numbering stands.

B1: PR003369 (antibody, human IgG1, kappa, V domains shown)
VH: QVQLVESGGGVVQPGRSLRLSCAASGFTFRSFGMHWVRQAPGKGLEWVAVISYDASNEYYADSVKGRFIISRDNSKDTLYLQMNSLRAGDTAVYYCAKGGALRWYFAYWGQGTLVTVSS
VL: EIVMTQSPATLSVSPGERATLSCRASQSISSNLGWYQQKPGQAPRLLIYGASTRATGIPARFSGSGSGTEFTLTISSLQSEDFAVYYCQQYRSWPPLTFGGGTKVEIKR
notes: L: N92R; Fc S239D, I332E), human IgG1
With B1, the EC50 in [1] amounted to 0.0508 nM. The molecule further displayed an EC50 in assay [2] of 0.434 nM. In assay [3], this molecule yielded an EC50 of 0.434 nM. In addition, in assay [4], the “Maximum MFI” value was determined as 204000. For the same molecule, in assay [5], the “EC50 (read off the curve)” value was roughly 0.05 µg/mL. Also, in assay [6], the Kd amounted to 1.39 nM, the koff is 0.000394 s⁻¹ and the on-rate (kon) turned out to be 283000 M⁻¹ s⁻¹.

B2: PR002038 (antibody, human IgG1, kappa, V domains shown)
VH: QVQLVQSGAEVKKPGSSMRVSCKASEDTFSSYAISWVRQAPGQGLEWMGGTAPIFGTTNYAQKFQGRVTITADKSTSTAYMELSSLRSEDTAVYYCARGGPYFDYWGQGTLVTVSS
VL: DIQLTQSPATLSVSPGERATLSCRASQSVSSNLAWYQQKPGQAPRLLIYGDYIRATGIPARFSGSGSGTEFTLTISSLQSEDIATYYCQQYVDLPITFGQGTRLEIKR
notes: Initial antibody, human IgG1; also called 1025_B-2A1
For B2, the EC50 in assay [7] amounted to 20 nM; in assay [9], 24.8 nM; in [10] it was 85.6 nM. The “Maximum MFI” value in [7] is 1.15e+06 MFI; in [9] it was 677000 MFI; in assay [10], 82800 MFI. Further, the binding result in [8] is on record as “no binding”.
